# Measured values from the supplement of paper PMC9732359.
# ± gives the uncertainty stated by the source.
# Test: protein stability index of a GFP-peptide fusion (yeast GPS) (PSI 1-4); higher = more stable; sorted into four equal gates, so the index is relative within each strain
# Outline: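 Plasmids isolated from each sorting gate were PCR-amplified and Illumina-sequenced, and barcodes assigned the reads to strains. The gates, four of equal size, were set by GFP/Cherry fluorescence ratio on mid-log cultures in leucine-free medium. These cultures were yeast carrying a pooled library of tiled 17-residue yeast protein peptides fused downstream of GFP on a plasmid that also expresses Cherry. The protein stability index is the sum of every gate's read frequency times its gate number.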
sequence,measurement,setting,value
NLKVELKEQSEQLKEQM [SMC4],protein stability index,doa10∆,3.27 ± 0.055
same,protein stability index,pdr5∆,3.2 ± 0.067
same,protein stability index,san1∆,3.29 ± 0.035
same,protein stability index,ubr1∆,3.2 ± 0.057
NLLCYYNLRSLNLINAK [RPN3],protein stability index,doa10∆,1.48 ± 0.049
same,protein stability index,pdr5∆,1.71 ± 0.06
same,protein stability index,san1∆,1.36 ± 0.12
same,protein stability index,ubr1∆,1.25 ± 0.041
NLLIQRLNFNQNSSKIV [SWI3],protein stability index,doa10∆,2.71 ± 0.053
same,protein stability index,pdr5∆,2.81 ± 0.051
same,protein stability index,san1∆,3.06 ± 0.038
same,protein stability index,ubr1∆,2.93 ± 0.041
NLMGNRNNHNSNTSTSK [SNF12],protein stability index,doa10∆,3 ± 0.073
same,protein stability index,pdr5∆,3.17 ± 0.096
same,protein stability index,san1∆,2.92 ± 0.12
same,protein stability index,ubr1∆,3.07 ± 0.054
NLNDKFGIYILTQGING [MED1],protein stability index,doa10∆,1.54 ± 0.04
same,protein stability index,pdr5∆,1.47 ± 0.032
same,protein stability index,san1∆,1.6 ± 0.096
same,protein stability index,ubr1∆,1.43 ± 0.031
NLQAKPLVGKPKTELTK [YAR002W/NUP60],protein stability index,doa10∆,2.72 ± 0.098
same,protein stability index,pdr5∆,2.52 ± 0.067
same,protein stability index,san1∆,2.7 ± 0.088
same,protein stability index,ubr1∆,2.39 ± 0.1
NLQGDLQAIQEKLNKTD [ITC1],protein stability index,pdr5∆,3.33 ± 0.21
same,protein stability index,san1∆,3.33 ± 0.17
same,protein stability index,ubr1∆,3.2 ± 0.16
NLQIRQLFNWCLMRSLH [DSN1],protein stability index,doa10∆,1.26 ± 0.092
same,protein stability index,pdr5∆,1.19 ± 0.061
same,protein stability index,san1∆,1.04 ± 0.17
same,protein stability index,ubr1∆,1.12 ± 0.13
NLRKSRGMLGLLEPPAK [RPO31],protein stability index,doa10∆,1.61 ± 0.22
same,protein stability index,pdr5∆,1.18 ± 0.21
NLSLYEATAASHERFFL [CSN12],protein stability index,doa10∆,2.35 ± 0.065
same,protein stability index,pdr5∆,2.73 ± 0.072
same,protein stability index,san1∆,2.08 ± 0.12
same,protein stability index,ubr1∆,2.62 ± 0.065
NLSSLIVEINNVSNTFN [YJL041W/NSP1],protein stability index,doa10∆,2.45 ± 0.043
same,protein stability index,pdr5∆,2.72 ± 0.046
same,protein stability index,san1∆,2.62 ± 0.04
same,protein stability index,ubr1∆,2.58 ± 0.032
NLTYYNEKLECISLGST [ITC1],protein stability index,doa10∆,2.2 ± 0.061
same,protein stability index,pdr5∆,2.39 ± 0.044
same,protein stability index,san1∆,2.32 ± 0.044
same,protein stability index,ubr1∆,2.45 ± 0.04
NLVSLLIIVTRKNYMHV [YML031W/NDC1],protein stability index,doa10∆,1.21 ± 0.041
same,protein stability index,pdr5∆,1.22 ± 0.039
same,protein stability index,san1∆,1.26 ± 0.11
same,protein stability index,ubr1∆,1.3 ± 0.033
NNDLESVSMLLQYYILE [RRI2],protein stability index,doa10∆,2.94 ± 0.047
same,protein stability index,pdr5∆,3.16 ± 0.049
same,protein stability index,san1∆,3.16 ± 0.034
same,protein stability index,ubr1∆,3.122 ± 0.031
NNESSDDMDIDEVNDRS [PCI8],protein stability index,doa10∆,3.09 ± 0.086
same,protein stability index,pdr5∆,3.17 ± 0.072
same,protein stability index,san1∆,3.05 ± 0.061
same,protein stability index,ubr1∆,3.09 ± 0.081
NNGNNSTSIQYHGISKN [POP6],protein stability index,doa10∆,2.48 ± 0.063
same,protein stability index,pdr5∆,2.51 ± 0.06
same,protein stability index,san1∆,2.65 ± 0.044
same,protein stability index,ubr1∆,2.22 ± 0.07
NNIIAEGIEKMGVRTFS [FAS2],protein stability index,doa10∆,2.7 ± 0.22
same,protein stability index,san1∆,2.23 ± 0.12
same,protein stability index,ubr1∆,2.69 ± 0.12
NNKILEKCKEINVETVY [BRR2],protein stability index,doa10∆,1.73 ± 0.06
same,protein stability index,pdr5∆,2 ± 0.062
same,protein stability index,san1∆,1.78 ± 0.19
same,protein stability index,ubr1∆,2.06 ± 0.067
NNKNNSITTGNDNENIV [MED2],protein stability index,doa10∆,2.89 ± 0.046
same,protein stability index,pdr5∆,2.94 ± 0.047
same,protein stability index,san1∆,2.95 ± 0.044
same,protein stability index,ubr1∆,2.99 ± 0.046
NNNNKSINKNNKEMHTD [SSN2],protein stability index,doa10∆,3.01 ± 0.087
same,protein stability index,pdr5∆,2.99 ± 0.082
same,protein stability index,san1∆,2.75 ± 0.073
same,protein stability index,ubr1∆,3.17 ± 0.093
NNNNNNNDDNGNNNNNN [MED2],protein stability index,doa10∆,3.277 ± 0.029
same,protein stability index,pdr5∆,3.284 ± 0.023
same,protein stability index,san1∆,3.327 ± 0.017
same,protein stability index,ubr1∆,3.286 ± 0.023
NNNNSNNHNMRNNSNNK [SWI1],protein stability index,doa10∆,3.054 ± 0.029
same,protein stability index,pdr5∆,2.95 ± 0.031
same,protein stability index,san1∆,2.762 ± 0.026
same,protein stability index,ubr1∆,2.764 ± 0.021
NNPLLLIVDVKQQGVGL [RPN8],protein stability index,doa10∆,1.27 ± 0.14
same,protein stability index,pdr5∆,1.87 ± 0.1
same,protein stability index,san1∆,1.87 ± 0.15
same,protein stability index,ubr1∆,2.15 ± 0.1
NNRQLPYLVANVVEVMD [RPT5],protein stability index,doa10∆,2.4 ± 0.11
same,protein stability index,pdr5∆,2.78 ± 0.07
same,protein stability index,san1∆,2.58 ± 0.14
same,protein stability index,ubr1∆,2.71 ± 0.074
NNSEQDQEIVIQQLHSV [ISW2],protein stability index,doa10∆,2.48 ± 0.06
same,protein stability index,pdr5∆,2.59 ± 0.071
same,protein stability index,san1∆,2.2 ± 0.096
same,protein stability index,ubr1∆,2.53 ± 0.038
NNSLSYHSGRLLIQGPK [ITC1],protein stability index,doa10∆,2.45 ± 0.054
same,protein stability index,pdr5∆,2.3 ± 0.048
same,protein stability index,san1∆,2.47 ± 0.062
same,protein stability index,ubr1∆,2.93 ± 0.051
NNSNSNNNDNNNSNTVA [SWI1],protein stability index,doa10∆,2.95 ± 0.058
same,protein stability index,pdr5∆,3.14 ± 0.051
same,protein stability index,san1∆,3.04 ± 0.042
same,protein stability index,ubr1∆,3.13 ± 0.045
NNTTPSSTGNANTSNNL [YJL041W/NSP1],protein stability index,doa10∆,3.34 ± 0.093
same,protein stability index,pdr5∆,3.29 ± 0.08
same,protein stability index,san1∆,3.46 ± 0.095
same,protein stability index,ubr1∆,3.37 ± 0.07
NNYKDLLAVAIAASYHY [RPP0],protein stability index,doa10∆,1.4 ± 0.065
same,protein stability index,pdr5∆,1.95 ± 0.12
same,protein stability index,san1∆,1.39 ± 0.15
same,protein stability index,ubr1∆,1.64 ± 0.068
NPDDLMKAVRKVAEVKK [RPT4],protein stability index,pdr5∆,3.4 ± 0.25
NPNSTAITADLGSSEAE [YGL172W/NUP49],protein stability index,doa10∆,2.56 ± 0.24
same,protein stability index,pdr5∆,2.4 ± 0.14
same,protein stability index,san1∆,2.86 ± 0.22
same,protein stability index,ubr1∆,2.76 ± 0.12
NPRKRAIPNSIIKRSNG [YMR153W/NUP53],protein stability index,doa10∆,2.19 ± 0.091
same,protein stability index,pdr5∆,2.7 ± 0.1
same,protein stability index,san1∆,2.67 ± 0.1
same,protein stability index,ubr1∆,2.92 ± 0.12
NPTKSKEILDNILPFLW [ECM29],protein stability index,doa10∆,2.26 ± 0.085
same,protein stability index,pdr5∆,2.97 ± 0.1
same,protein stability index,san1∆,2.8 ± 0.23
same,protein stability index,ubr1∆,2.61 ± 0.085
NPYSSYVSQIRKHKRVS [YAR002W/NUP60],protein stability index,doa10∆,2.23 ± 0.081
same,protein stability index,pdr5∆,1.88 ± 0.05
same,protein stability index,san1∆,2.85 ± 0.049
same,protein stability index,ubr1∆,2.38 ± 0.067
NQGVNELKYQRSLRATA [RPL15A],protein stability index,doa10∆,1.33 ± 0.073
same,protein stability index,pdr5∆,1.42 ± 0.086
same,protein stability index,san1∆,1.61 ± 0.18
same,protein stability index,ubr1∆,1.11 ± 0.05
NQINSFWSLHSSTYYNL [NUT1],protein stability index,doa10∆,2.34 ± 0.064
same,protein stability index,pdr5∆,1.75 ± 0.049
same,protein stability index,san1∆,1.72 ± 0.073
same,protein stability index,ubr1∆,1.57 ± 0.036
NQKTSAVAALTEVRAED [RPL8A],protein stability index,doa10∆,2.92 ± 0.082
same,protein stability index,pdr5∆,2.94 ± 0.071
same,protein stability index,san1∆,3.18 ± 0.058
same,protein stability index,ubr1∆,2.68 ± 0.087
NQLVEPNRIKLSKEVPF [SRB5],protein stability index,doa10∆,2.42 ± 0.038
same,protein stability index,pdr5∆,2.44 ± 0.037
same,protein stability index,san1∆,2.46 ± 0.042
same,protein stability index,ubr1∆,2.23 ± 0.025
NQMGMGTNNGMSMGGGV [YOR098C/NUP1],protein stability index,doa10∆,3.39 ± 0.13
same,protein stability index,pdr5∆,3.15 ± 0.17
same,protein stability index,san1∆,3.33 ± 0.099
same,protein stability index,ubr1∆,3.24 ± 0.11
NQNTLKEISARRYKLLT [POP1],protein stability index,doa10∆,2.13 ± 0.049
same,protein stability index,pdr5∆,2.35 ± 0.045
same,protein stability index,san1∆,2.1 ± 0.067
same,protein stability index,ubr1∆,2.65 ± 0.045
NQQQQQQQQQQQQRRQL [GAL11],protein stability index,doa10∆,2.79 ± 0.056
same,protein stability index,pdr5∆,2.9 ± 0.063
same,protein stability index,san1∆,2.84 ± 0.043
same,protein stability index,ubr1∆,2.91 ± 0.051
NQSSFNFGNNGAGGLNP [YOR098C/NUP1],protein stability index,doa10∆,3.15 ± 0.069
same,protein stability index,pdr5∆,3.1 ± 0.076
same,protein stability index,san1∆,3.2 ± 0.045
same,protein stability index,ubr1∆,3.25 ± 0.064
NQTIKEAKDAIIELENI [YIL149C/MLP2],protein stability index,doa10∆,3.02 ± 0.061
same,protein stability index,pdr5∆,3.2 ± 0.07
same,protein stability index,san1∆,3.06 ± 0.052
same,protein stability index,ubr1∆,2.89 ± 0.065
NRTLYELADLPKLKRIG [GRR1],protein stability index,doa10∆,2.88 ± 0.049
same,protein stability index,pdr5∆,2.87 ± 0.037
same,protein stability index,san1∆,2.8 ± 0.042
same,protein stability index,ubr1∆,3.02 ± 0.042
NRVGLTLDNIDDINKAK [ARP9],protein stability index,doa10∆,3.15 ± 0.056
same,protein stability index,pdr5∆,2.93 ± 0.051
same,protein stability index,san1∆,3.22 ± 0.045
same,protein stability index,ubr1∆,2.43 ± 0.034
NSADVDMDAQGRSDSNT [YGL100W/SEH1],protein stability index,doa10∆,3.45 ± 0.096
same,protein stability index,pdr5∆,3.39 ± 0.088
same,protein stability index,san1∆,3.1 ± 0.12
same,protein stability index,ubr1∆,3.29 ± 0.061
NSEISNLPKDKSGIPEF [SSN2],protein stability index,doa10∆,2.98 ± 0.087
same,protein stability index,pdr5∆,3 ± 0.11
same,protein stability index,san1∆,2.9 ± 0.072
same,protein stability index,ubr1∆,3.33 ± 0.076
NSEYLKRRVTNLEFNYT [SMC2],protein stability index,doa10∆,2.38 ± 0.066
same,protein stability index,pdr5∆,2.27 ± 0.1
same,protein stability index,san1∆,2.5 ± 0.091
same,protein stability index,ubr1∆,2.49 ± 0.084
NSIDSTSRIELELKNIG [ECM29],protein stability index,doa10∆,3.24 ± 0.087
same,protein stability index,pdr5∆,3.15 ± 0.062
same,protein stability index,san1∆,2.8 ± 0.05
same,protein stability index,ubr1∆,2.72 ± 0.044
NSIESKNLSLQTGTKPV [COR1],protein stability index,doa10∆,2.72 ± 0.06
same,protein stability index,pdr5∆,2.84 ± 0.053
same,protein stability index,san1∆,2.95 ± 0.045
same,protein stability index,ubr1∆,2.85 ± 0.042
NSIWGSSLRKNASGNKR [ITC1],protein stability index,doa10∆,1.6 ± 0.062
same,protein stability index,pdr5∆,2.12 ± 0.097
same,protein stability index,san1∆,2.5 ± 0.11
same,protein stability index,ubr1∆,1.86 ± 0.044
NSLLLDSTPEEVSCKLL [YML103C/NUP188],protein stability index,doa10∆,2.67 ± 0.081
same,protein stability index,pdr5∆,3.16 ± 0.08
same,protein stability index,san1∆,2.97 ± 0.085
same,protein stability index,ubr1∆,2.71 ± 0.08
